Patent US10533050B2, “Methods and compositions for liver cancer therapy” (Institut National de la Sante et de la Recherche Medicale …, priority 2010, dated 2020)

What was measured:
Format in all cases: cell-based
[1] = test system: side population cells of Huh7 cells; experiment: Spheroid formation of Huh7 side population cells under low adherence culture conditions; conditions: 5 nM doxorubicin, 9 days; FIG. 9
Method: The dye excluding side population cells of Huh7 cells were isolated as described in Example 8. Side population cells were then seeded into ultra low adherence 96-well plates (200 cells/well) in M11 medium, and grown for 9 days at 37° C. in the presence of control or anti-progastrin polyclonal antibodies (1 μg/ml), 5 nM doxorubicin (a chemotherapeutic agent used in certain liver cancer therapy), or DMSO (vehicle for doxorubicin) (15 wells per condition). The composition of M11 medium was as follows: DMEM/F12-Glutamax (Catalog #31331 Invitrogen); 20 ng/ml EGF (R&D systems); 10 ng/ml FGF (R&D systems); 20 microg/ml Insulin (Sigma); 1/100 dilution of N2 supplement (Catalog #P1510, Gibco); 2 μg/ml ciprofloxacin, 5 μg/ml gentamycin and 3 μg/ml glucose. At the end of the experiment, photomicrographs were taken, and the number of spheres per well counted and the mean and standard deviation calculated.
The dye excluding side population cells of Huh7 cells were isolated as described in Example 8. […] At the end of the experiment, photomicrographs were taken, and the number of spheres per well counted and the mean and standard deviation calculated.

liver cancer cells = experiment: Neutralizing activity with liver cancer cells; conditions: tests with liver cancer cells
Method: A specific test for assessing whether a particular anti-hPG antibody is neutralizing can be performed as follows. Huh7 hepatocellular carcinoma cells are seeded in ultra low-adherence 24-well plates (500 cells/well) in serum-free M11 medium. Cells are grown at 37° C. and treated twice daily for 7 days with the test anti-hPG antibody or a control, non-specific monoclonal antibody, at antibody concentrations of about 5 μg/mL. At the end of the experiment, photomicrographs are taken, and the number of spheres per well is counted and the median and percentile distribution calculated.

[2] = test system: PLC/PRL/5 hepatocellular carcinoma cells; experiment: Spheroid formation of PLC/PRL/5 cells under low adherence culture conditions; conditions: vs control MAb
Method: PLC/PRL/5 hepatocellular carcinoma cells were seeded in ultra low-adherence 24-well plates (220 cells/well) in serum-free M11 medium (DMEM/F12 with 20 ng/ml EGF, 10 ng/ml FGF, 20 μg/ml insulin, N2 supplement, 2 μg/ml ciprofloxacin, 5 μg/ml gentamycin and 3 μg/ml glucose). Cells were grown for 10 days at 37° C., with the daily addition of control or anti-hPG MAb3 monoclonal antibodies (1 μg/ml). At the end of the experiment, photomicrographs were taken, and the number of spheres per well counted and the mean and standard deviation calculated. In one experiment, PLC/PRL/5 hepatocellular carcinoma cells were seeded in ultra low-adherence 96-well plates (35 cells/well) in serum-free M11 medium (DMEM/F12 with 20 ng/ml EGF, 10 ng/ml FGF, 20 μg/ml insulin, N2 supplement, 2 μg/ml ciprofloxacin, 5 μg/ml gentamycin, and 3 μg/ml glucose). […] At the end of the experiment, photomicrographs were taken, and the number of spheres per well counted and the median and percentile distribution calculated. […] At the end of the experiment, photomicrographs were taken, and the number of spheres per well counted and the median and percentile distribution calculated. […] At the end of the experiment, photomicrographs were taken, and the number of spheres per well counted and the median and percentile distribution calculated.

[3] = test system: Huh7 hepatocellular carcinoma cells; experiment: Spheroid formation of Huh7 cells after antibody pre-treatment under regular adherence; conditions: pre-treatment with 10 μg/mL, then 5 days without treatment, vs control MAb; FIG. 13A-B
Method: In one experiment, 75,000 Huh7 hepatocellular carcinoma cells/well were first seeded into 6-well plates in MEMα with 10% FCS, serum starved overnight and grown for 60 hours in MEMα+0.5% Pannexin H in the presence of 10 μg/mL anti-progastrin monoclonal antibody MAb8 or control monoclonal antibody (P3X63Ag8, ATCC, Ref TIB-9). At the end of treatment, for each treatment group, 500 cells/well were plated into eight wells of ultra low-adherence 24-well plates in 500 μl of serum-free M11 medium containing bFGF and EGF, and grown for a further 5 days without treatment. At the end of this period, photographs were taken, the number of spheres per well was counted, and sphere surface was measured. […] Thereafter, an operator who was blinded to the identity of all wells counted the spheroids.
In a second experiment, 75,000 Huh7 hepatocellular carcinoma cells/well were first seeded into 6-well plates in MEMα with 10% FCS, serum starved overnight and grown for 60 hours in MEMα+0.5% Pannexin H in the presence of 10 μg/mL anti-progastrin monoclonal antibody MAb16 or a control monoclonal antibody (P3X63Ag8, ATCC, Ref TIB-9). […] At the end of this period, photographs were taken, the number of spheres per well was counted, and sphere surface was measured. […] Thereafter, an operator who was blinded to the identity of all wells counted the spheroids.

Molecule | Number of spheroids formed [1] | Neutralizing activity (liver cancer cells) | Number of spheroids formed ([2]; 3 μg/ml twice daily, 8 days, FIG. 15A) | Number of spheroids formed ([2]; 6 μg/ml twice daily, 7 days, FIG. 15C) | Ability to grow as spheroids [3]
COc1cccc2c1C(=O)c1c(O)c3c(c(O)c1C2=O)C[C@@](O)(C(=O)CO)C[C@@H]3O[C@H]1C[C@H](N)[C@H](O)[C@H](C)O1 [Doxorubicin, doxorubicin] | reduce the number of spheroids | – | – | – | –
MAb19: murine N-terminal anti-hPG monoclonal antibody, hybridoma 1B3B4F11, VH SEQ ID NO:62, VL SEQ ID NO:66 (antibody, V domains shown) VH: DVQLQESGPGLVKPSQSLSLTCTVTGYSITSDYAWNWIRQFPGNKLEWMGYISFSGYTSYNPSLKSRISVTRDTSRNQFFLQLTSVTTEDTATYYCAREVNYGDSYHFDYWGQGTIVTVSS VL: QLALTQSSSASFSLGASAKLTCTLSSQHRTYTIEWYQQQSLKPPKYVMEVKKDGSHSTGHGIPDRFSGSSSGADRYLSISNIQPEDEAIYICGVGDAIKGQSVFVFGGGTKVTVL | – | exhibited neutralizing activity | significantly reduced | – | –
MAb8: murine C-terminal anti-hPG monoclonal antibody, hybridoma 1C10D3B9, VH SEQ ID NO:59, VL SEQ ID NO:63 (antibody, V domains shown) VH: EVQLVESGGGLVKPGGSLKLSCAASGFTFTTYAMSWVRQTPEKRLEWVATISSGGTYTYYPDSVKGRFTISRDNAKNALYLQMSSLRSEDTAMYYCATQGNYSLDFWGQGTSLTVSS VL: DIVMTQAASSNPVTLGTSASISCRSSKSLRHTKGITFLYWYLQKPGQSPQLLIYQMSNLASGVPDRFSSSGSGTDFTLRISRVEAEDLGVYYCAQNLELPLTFGAGTKLELK | – | exhibited neutralizing activity | – | significantly reduced | significantly reduced
MAb3: murine N-terminal anti-hPG monoclonal antibody, hybridoma 6B5B11C10, VH SEQ ID NO:12, VL SEQ ID NO:13 (antibody, V domains shown) VH: EVQLQQSGTVLARPGASVKMSCKASGYIFTSYWVHWVKQRPGQGLEWIGGFYPGNSDSRYNQKFKGKATLTAVTSASTAYMDLSSLTNEDSAVYFCTRRDSPQYWGQGTTLTVSS VL: DVLMTQTPLSLPVSLGDQASISCRSSQSIVHSNGNTYLEWYLQKPGQSPKLLIYKVSNRFSGVPDRFSGSGSGTDFTLKISRLEAEDLGVYYCFQGSHVPFTFGGGTKLEIK | – | exhibited neutralizing activity | – | – | –
